# Assay results published in PMC9453709.
# Target: SARS-CoV-2 Omicron BA.1 S glycoprotein ectodomain with S6P and GSAS mutations (SARS-CoV-2)
# Assay: cryo-EM structure
substance,measurement,value
SARS-CoV-2 Omicron BA.1 S glycoprotein ectodomain with S6P and GSAS mutations (domain or fragment),stoichiometry N,3
